Source: US20080020979A1 (WISCONSIN ALUMNI RESEARCH FOUNDATION, published 2008)

Key:
human αvβ3 integrin [1] = molecular target: T1, human αvβ3 integrin (human, UniProt P06756 31-1048; P05106 27-788); test: cell-based or functional assay
mouse αvβ5 integrin = mouse αvβ5 integrin (mouse, UniProt P43406 31-1044; O70309 24-798); test: cell-based or functional assay
human αvβ5 integrin = human αvβ5 integrin (human, UniProt P06756 31-1048; P18084 24-799); test: cell-based or functional assay
[2] = molecular target: mouse αvβ3 integrin (mouse) (UniProt P43406); test: cell-based or functional assay
human αvβ3 integrin [3] = molecular target: T1, human αvβ3 integrin; test: co-immunoprecipitation from MDA-MB-231 cells, blot for β3 subunit

human αvβ5 integrin, sequence (P06756 31-1048, chain 1 of 2): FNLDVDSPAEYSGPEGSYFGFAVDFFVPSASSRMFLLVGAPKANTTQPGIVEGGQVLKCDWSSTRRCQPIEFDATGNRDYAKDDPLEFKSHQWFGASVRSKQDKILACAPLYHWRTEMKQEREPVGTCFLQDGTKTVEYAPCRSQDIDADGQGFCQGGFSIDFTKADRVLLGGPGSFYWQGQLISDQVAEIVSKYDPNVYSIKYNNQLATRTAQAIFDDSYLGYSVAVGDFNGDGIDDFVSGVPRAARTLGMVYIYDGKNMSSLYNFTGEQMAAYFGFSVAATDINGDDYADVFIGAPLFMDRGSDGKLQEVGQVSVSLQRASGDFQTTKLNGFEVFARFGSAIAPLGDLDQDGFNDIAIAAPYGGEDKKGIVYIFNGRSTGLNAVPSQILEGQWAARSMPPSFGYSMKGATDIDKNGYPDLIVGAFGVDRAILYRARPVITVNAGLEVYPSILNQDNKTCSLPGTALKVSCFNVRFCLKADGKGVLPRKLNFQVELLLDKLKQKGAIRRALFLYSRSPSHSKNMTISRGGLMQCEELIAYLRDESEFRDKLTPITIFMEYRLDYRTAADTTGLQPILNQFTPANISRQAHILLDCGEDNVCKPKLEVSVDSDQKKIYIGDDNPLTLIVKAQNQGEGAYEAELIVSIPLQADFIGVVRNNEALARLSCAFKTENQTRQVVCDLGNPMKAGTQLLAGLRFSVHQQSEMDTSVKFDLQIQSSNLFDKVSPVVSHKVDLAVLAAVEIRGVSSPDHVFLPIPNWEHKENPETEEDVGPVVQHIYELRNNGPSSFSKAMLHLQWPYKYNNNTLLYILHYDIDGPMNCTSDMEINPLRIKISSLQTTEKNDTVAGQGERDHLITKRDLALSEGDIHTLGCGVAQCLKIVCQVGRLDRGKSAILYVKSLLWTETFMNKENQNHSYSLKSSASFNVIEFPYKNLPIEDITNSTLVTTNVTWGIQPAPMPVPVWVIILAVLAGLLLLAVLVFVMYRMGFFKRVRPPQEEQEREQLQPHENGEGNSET
human αvβ5 integrin, sequence (P18084 24-799, chain 2 of 2): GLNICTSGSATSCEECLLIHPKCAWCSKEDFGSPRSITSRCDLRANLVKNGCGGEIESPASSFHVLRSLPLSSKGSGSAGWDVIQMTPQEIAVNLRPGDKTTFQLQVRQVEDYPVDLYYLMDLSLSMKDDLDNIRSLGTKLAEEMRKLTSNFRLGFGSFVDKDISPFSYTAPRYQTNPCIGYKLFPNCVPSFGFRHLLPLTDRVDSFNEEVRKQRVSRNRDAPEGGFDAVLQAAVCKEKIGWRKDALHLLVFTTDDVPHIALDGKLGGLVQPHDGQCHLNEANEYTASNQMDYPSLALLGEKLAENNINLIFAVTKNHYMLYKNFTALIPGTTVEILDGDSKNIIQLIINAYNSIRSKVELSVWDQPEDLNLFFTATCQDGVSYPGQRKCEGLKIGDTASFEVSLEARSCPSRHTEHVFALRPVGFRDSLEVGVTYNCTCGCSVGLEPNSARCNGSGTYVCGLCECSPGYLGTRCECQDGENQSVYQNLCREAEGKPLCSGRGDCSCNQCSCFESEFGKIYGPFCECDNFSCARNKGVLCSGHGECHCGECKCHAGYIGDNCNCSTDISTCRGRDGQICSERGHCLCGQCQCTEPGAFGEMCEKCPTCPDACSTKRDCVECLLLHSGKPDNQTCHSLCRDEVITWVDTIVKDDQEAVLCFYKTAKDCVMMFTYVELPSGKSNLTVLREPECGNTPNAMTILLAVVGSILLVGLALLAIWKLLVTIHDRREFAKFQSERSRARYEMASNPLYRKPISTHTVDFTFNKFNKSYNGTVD
T1 sequence (P06756 31-1048, chain 1 of 2): as the sequence (P06756 31-1048, chain 1 of 2) above
T1 sequence (P05106 27-788, chain 2 of 2): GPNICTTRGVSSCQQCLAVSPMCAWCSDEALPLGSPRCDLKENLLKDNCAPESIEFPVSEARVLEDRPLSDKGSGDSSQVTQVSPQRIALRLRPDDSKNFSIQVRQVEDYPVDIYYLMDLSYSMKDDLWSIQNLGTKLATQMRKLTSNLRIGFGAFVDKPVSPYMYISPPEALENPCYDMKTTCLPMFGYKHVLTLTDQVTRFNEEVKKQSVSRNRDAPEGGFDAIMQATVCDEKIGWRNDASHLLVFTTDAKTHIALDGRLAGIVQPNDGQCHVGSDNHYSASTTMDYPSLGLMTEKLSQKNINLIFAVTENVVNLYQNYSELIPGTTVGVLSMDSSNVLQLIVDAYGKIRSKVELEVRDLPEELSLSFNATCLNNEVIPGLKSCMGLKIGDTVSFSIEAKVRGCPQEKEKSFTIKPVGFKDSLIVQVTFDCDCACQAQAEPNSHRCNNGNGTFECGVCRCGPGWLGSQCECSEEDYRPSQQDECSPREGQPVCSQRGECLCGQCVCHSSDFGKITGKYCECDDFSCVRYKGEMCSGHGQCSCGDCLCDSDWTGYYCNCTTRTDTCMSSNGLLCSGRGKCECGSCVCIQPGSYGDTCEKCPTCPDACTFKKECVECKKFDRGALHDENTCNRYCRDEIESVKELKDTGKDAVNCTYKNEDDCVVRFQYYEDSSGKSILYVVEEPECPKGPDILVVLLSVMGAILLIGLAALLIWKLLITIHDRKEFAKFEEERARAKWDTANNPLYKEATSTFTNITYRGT
mouse αvβ5 integrin, sequence (P43406 31-1044, chain 1 of 2): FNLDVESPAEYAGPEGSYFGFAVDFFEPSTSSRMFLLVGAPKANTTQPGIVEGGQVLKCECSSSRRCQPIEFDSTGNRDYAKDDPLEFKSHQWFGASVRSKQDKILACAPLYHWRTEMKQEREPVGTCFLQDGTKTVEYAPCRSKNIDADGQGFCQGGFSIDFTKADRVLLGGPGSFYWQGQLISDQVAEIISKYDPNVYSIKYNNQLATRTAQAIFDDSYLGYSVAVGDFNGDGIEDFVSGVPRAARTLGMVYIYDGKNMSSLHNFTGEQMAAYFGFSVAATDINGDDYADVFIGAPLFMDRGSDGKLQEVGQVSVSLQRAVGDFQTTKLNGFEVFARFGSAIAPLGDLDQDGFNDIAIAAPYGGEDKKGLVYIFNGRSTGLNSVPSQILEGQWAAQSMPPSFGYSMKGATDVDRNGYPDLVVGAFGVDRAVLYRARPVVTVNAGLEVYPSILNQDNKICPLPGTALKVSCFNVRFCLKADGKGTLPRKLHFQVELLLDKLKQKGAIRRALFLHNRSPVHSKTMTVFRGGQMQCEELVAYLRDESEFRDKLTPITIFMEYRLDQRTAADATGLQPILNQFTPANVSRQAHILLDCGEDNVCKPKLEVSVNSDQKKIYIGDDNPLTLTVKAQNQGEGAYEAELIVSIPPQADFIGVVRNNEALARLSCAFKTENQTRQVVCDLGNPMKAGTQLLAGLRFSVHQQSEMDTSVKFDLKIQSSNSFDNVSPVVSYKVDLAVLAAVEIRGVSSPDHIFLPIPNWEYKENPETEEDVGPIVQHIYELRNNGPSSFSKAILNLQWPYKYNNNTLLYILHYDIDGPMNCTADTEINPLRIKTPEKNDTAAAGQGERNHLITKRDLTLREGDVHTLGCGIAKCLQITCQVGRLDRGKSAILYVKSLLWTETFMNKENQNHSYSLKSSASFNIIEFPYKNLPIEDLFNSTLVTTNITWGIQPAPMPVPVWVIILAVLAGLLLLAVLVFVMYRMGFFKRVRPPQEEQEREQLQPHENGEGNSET
mouse αvβ5 integrin, sequence (O70309 24-798, chain 2 of 2): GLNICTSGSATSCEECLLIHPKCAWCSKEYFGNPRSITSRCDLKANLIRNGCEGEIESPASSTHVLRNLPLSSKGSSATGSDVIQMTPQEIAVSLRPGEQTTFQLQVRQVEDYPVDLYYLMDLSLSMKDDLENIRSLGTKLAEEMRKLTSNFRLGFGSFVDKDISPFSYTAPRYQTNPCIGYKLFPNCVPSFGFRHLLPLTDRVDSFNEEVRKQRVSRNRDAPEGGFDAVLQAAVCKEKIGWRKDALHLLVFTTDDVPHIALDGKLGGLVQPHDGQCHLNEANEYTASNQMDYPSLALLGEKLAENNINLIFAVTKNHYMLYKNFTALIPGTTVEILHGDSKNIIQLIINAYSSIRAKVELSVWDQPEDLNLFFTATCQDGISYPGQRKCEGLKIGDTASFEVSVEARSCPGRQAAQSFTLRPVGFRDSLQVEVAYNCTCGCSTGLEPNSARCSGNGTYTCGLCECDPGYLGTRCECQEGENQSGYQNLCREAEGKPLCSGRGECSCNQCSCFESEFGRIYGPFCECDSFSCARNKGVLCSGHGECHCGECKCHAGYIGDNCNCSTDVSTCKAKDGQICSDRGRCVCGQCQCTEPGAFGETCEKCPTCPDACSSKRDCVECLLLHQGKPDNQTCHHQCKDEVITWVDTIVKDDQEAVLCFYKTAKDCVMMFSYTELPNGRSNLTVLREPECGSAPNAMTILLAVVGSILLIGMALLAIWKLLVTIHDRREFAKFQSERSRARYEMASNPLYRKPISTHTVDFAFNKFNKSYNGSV

Question: With “GST-mS1ED (recombinant mouse Sdc1 ectodomain, amino acids 18-251, expressed as a fusion protein with GST) (from UniProt P18828 18-251)” as the molecule, how does the HMEC spreading on VN (human αvβ3 integrin [1]) read?
Answer: 5 µM

Question: What about the IC50, HAEC spreading on VN (human αvβ3 integrin [1]) of the same molecule?
Answer: 1 µM

Question: And the IC50, HMEC-1 spreading on VN (human αvβ3 integrin [1])?
Answer: 3 to 10 µM

Question: What about the concentration that blocks endothelial cell attachment to VN altogether (human αvβ3 integrin [1]) of the same molecule?
Answer: 10 µM

Question: And the percent reduction of HMEC spreading on VN at 1 µM mS1ED (human αvβ3 integrin [1])?
Answer: > 80%

Question: And the percent reduction of HMEC spreading on VN at 3 µM mS1ED (human αvβ3 integrin [1])?
Answer: > 90%

Question: And the spreading of mouse aortic endothelial cells on VN (mouse αvβ5 integrin)?
Answer: 1 µM

Question: And the HMEC spreading on VN (human αvβ5 integrin)?
Answer: 5 µM

Question: What about the IC50, HAEC spreading on VN (human αvβ5 integrin) of the same molecule?
Answer: 1 µM

Question: What about the IC50, HMEC-1 spreading on VN (human αvβ5 integrin) of the same molecule?
Answer: 3 to 10 µM

Question: And the concentration that blocks endothelial cell attachment to VN altogether (human αvβ5 integrin)?
Answer: 10 µM

Question: And the percent reduction of HMEC spreading on VN at 1 µM mS1ED (human αvβ5 integrin)?
Answer: > 80%

Question: What about the percent reduction of HMEC spreading on VN at 3 µM mS1ED (human αvβ5 integrin) of the same molecule?
Answer: > 90%

Question: What about the spreading of mouse aortic endothelial cells on VN [2] of the same molecule?
Answer: 1 µM

Question: With ASTSTLPAGEGPKEGEAVVLPEVEPGLTAREQEA [hSSTN 88-121 (amino acids 88-121 of the human Sdc1 sequence)] as the molecule, how does the “IC50, MDA-MB-231 attachment and spreading on VN” value (human αvβ3 integrin [1]) read?
Answer: 100 to 300 nM

Question: Which “fold less active, HMEC-1 attachment and spreading on VN” value (human αvβ3 integrin [1]) does the source give for FTSVLPAGEKPEEGEPVLHVEAEPGFTARD [SSTN88-117 (30-mer)] here?
Answer: 3 fold

Question: What about the “fold less active, HMEC-1 attachment and spreading on VN” value (human αvβ5 integrin) of the same molecule?
Answer: 3 fold

Question: STSTLPAGEGPKEGEAVVLPEVEPGLTAREQE [hSSTN 89-120 (amino acids 89-120 of the human Sdc1 sequence)] was tested. Which “IC50, MDA-MB-231 attachment and spreading on VN” value (human αvβ3 integrin [1]) did it give?
Answer: 100 to 300 nM

Question: What does the source list for SNTETAFTSVLPAGEKPEEGEPVLHVEAEPGFTARDKEKEVTTRPRETV [synstatin82-130 (SSTN82-130, 49-mer, amino acids 82-130 of mouse Sdc-1)]?
Answer: IC50, HMEC-1 spreading on VN (human αvβ3 integrin [1]): ~0.1 µM; IC50, MDA-MB-231 spreading on VN (human αvβ3 integrin [1]): ~0.1 µM; fold lower concentration than mS1ED for equal inhibition, endothelial cells on VN (human αvβ3 integrin [1]): 10 fold; IC50, B82L fibroblast spreading on VN (mouse αvβ5 integrin): ~0.1 µM; IC50, HMEC-1 spreading on VN (human αvβ5 integrin): ~0.1 µM; fold lower concentration than mS1ED for equal inhibition, endothelial cells on VN (human αvβ5 integrin): 10 fold

B1: mouse syndecan-1 mutant bearing deletion of amino acids 67-121 (receptor, UniProt P18828 23-311, looked up)
chain: QIVAVNVPPEDQDGSGDDSDNFSGSGTGALPDTLSRQTPSTWKDVTTRPRETVQLPITQRASTVRVTTAQAAVTSHPHGGMQPGLHETSAPTAPGQPDHQPPRVEGGGTSVIKEVVEDGTANQLPAGEGSGEQDFTFETSGENTAVAAVEPGLRNQPPVDEGATGASQSLLDRKEVLGGVIAGGLVGLIFAVCLVAFMLYRMKKKDEGSYSLEEPKQANGGAYQKPTKQEEFYA
notes: whole, on cells; also called mouse mutant lacking the active site
Question: Does B1 bind (human αvβ3 integrin [3])?
Answer: no binding
